Tests used:
[1] = molecular target: Baculoviral IAP repeat-containing protein 2, IAP2 (human) (UniProt Q13490); experiment: Flag co-IP, MudPIT MS, DMSO
[2] = molecular target: CUL3-interacting protein I. KLHL12 (human) (UniProt Q53G59); experiment: Flag co-IP, MudPIT MS, DMSO
Cullin 3 (human) = Cullin 3 (human) (UniProt Q13618); experiment: Flag co-IP, MudPIT MS, DMSO
[3] = molecular target: DNA damage-binding protein I. DDB1 (human) (UniProt Q16531); experiment: Flag co-IP, MudPIT MS, DMSO
EDD1/UBR5 (human) [4] = molecular target: EDD1/UBR5 (human) (UniProt O95071); experiment: Flag co-IP, MudPIT MS, DMSO
[5] = molecular target: Kelch-like protein 22. KLEIL22 (human) (UniProt Q53GT1); experiment: Flag co-IP, MudPIT MS, DMSO
Sequence of Kelch-like protein 22. KLEIL22 (human) (Q53GT1 2-634 limits assumed): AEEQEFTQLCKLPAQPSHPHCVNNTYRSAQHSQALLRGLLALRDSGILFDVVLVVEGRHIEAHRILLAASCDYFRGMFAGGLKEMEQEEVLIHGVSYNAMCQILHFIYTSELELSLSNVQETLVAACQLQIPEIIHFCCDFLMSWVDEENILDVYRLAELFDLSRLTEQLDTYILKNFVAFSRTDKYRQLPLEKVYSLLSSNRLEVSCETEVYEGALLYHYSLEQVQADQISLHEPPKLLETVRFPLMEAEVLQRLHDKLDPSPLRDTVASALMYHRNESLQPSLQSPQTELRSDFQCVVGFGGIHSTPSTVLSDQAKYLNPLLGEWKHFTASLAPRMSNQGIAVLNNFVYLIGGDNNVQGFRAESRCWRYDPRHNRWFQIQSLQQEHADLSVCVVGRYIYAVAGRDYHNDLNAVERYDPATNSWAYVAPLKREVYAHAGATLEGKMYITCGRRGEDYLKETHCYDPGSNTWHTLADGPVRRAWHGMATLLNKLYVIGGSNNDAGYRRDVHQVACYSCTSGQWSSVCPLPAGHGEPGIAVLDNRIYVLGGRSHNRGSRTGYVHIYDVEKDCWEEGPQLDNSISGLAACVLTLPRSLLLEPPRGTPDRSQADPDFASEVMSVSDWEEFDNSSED

Praja 2 (human) = Praja 2 (human) (UniProt O43164); experiment: Flag co-IP, MudPIT MS, DMSO
Sequence of Praja 2 (human) (O43164 2-708 limits assumed): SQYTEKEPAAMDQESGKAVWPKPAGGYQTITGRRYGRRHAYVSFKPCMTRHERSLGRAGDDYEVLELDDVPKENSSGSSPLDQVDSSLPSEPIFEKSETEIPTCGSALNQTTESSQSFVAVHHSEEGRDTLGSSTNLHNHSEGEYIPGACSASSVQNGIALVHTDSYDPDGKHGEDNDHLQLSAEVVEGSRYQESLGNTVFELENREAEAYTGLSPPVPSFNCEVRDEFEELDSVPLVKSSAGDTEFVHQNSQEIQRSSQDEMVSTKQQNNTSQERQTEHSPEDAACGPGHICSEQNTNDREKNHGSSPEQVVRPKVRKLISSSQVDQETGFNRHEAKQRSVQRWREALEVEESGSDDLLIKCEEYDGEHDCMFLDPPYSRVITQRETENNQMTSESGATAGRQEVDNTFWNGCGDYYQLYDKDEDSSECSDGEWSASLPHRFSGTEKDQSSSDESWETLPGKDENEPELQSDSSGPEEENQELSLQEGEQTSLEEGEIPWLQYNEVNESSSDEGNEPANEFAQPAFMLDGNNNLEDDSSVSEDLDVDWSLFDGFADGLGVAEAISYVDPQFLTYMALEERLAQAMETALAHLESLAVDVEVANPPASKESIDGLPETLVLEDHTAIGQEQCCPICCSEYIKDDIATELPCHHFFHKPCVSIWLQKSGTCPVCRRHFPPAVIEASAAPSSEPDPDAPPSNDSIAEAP

[6] = molecular target: Retinoblastoma-associated factor 600, UBR4 (human) (UniProt Q5T4S7); experiment: Flag co-IP, MudPIT MS, DMSO
UBR1 (human) = UBR1 (human) (UniProt Q8IWV7); experiment: Flag co-IP, MudPIT MS, DMSO
UBR2 (human) [7] = molecular target: UBR2 (human) (UniProt Q8IWV8); experiment: Flag co-IP, MudPIT MS, DMSO
gp78 (human) [8] = molecular target: gp78 (human) (UniProt Q9UKV5); experiment: Flag co-IP, MudPIT MS, DMSO
Sequence of gp78 (human) (Q9UKV5 whole entry): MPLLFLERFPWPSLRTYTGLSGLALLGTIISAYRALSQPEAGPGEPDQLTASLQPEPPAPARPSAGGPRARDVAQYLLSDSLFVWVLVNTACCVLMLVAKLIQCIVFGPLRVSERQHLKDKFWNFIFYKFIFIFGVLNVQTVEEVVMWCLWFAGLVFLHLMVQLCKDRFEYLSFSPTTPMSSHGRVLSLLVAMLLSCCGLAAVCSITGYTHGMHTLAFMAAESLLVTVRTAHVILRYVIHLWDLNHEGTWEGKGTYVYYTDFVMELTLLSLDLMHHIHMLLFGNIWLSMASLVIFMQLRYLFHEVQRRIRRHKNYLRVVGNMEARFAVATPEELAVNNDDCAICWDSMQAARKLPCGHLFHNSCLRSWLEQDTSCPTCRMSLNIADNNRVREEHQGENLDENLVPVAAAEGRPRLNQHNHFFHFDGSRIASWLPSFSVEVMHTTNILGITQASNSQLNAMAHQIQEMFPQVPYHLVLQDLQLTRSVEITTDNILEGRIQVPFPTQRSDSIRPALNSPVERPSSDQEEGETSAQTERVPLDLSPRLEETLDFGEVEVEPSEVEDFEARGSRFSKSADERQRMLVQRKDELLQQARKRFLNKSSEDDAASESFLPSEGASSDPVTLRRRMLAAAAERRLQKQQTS

[9] = molecular target: DNA damage-binding protein I. DDB1 (human) (UniProt Q16531); experiment: Flag co-IP, MudPIT MS, MG132
[10] = molecular target: E3 ubiquitin-protein ligase1-HUWE1 (human) (UniProt Q7Z6Z7); experiment: Flag co-IP, MudPIT MS, MG132
[11] = molecular target: E6AP ubiquitin-protein ligase, UBE3A (human) (UniProt Q05086); experiment: Flag co-IP, MudPIT MS, MG132
EDD1/UBR5 (human) [12] = molecular target: EDD1/UBR5 (human) (UniProt O95071); experiment: Flag co-IP, MudPIT MS, MG132
[13] = molecular target: Retinoblastoma-associated factor 600, UBR4 (human) (UniProt Q5T4S7); experiment: Flag co-IP, MudPIT MS, MG132
UBR2 (human) [14] = molecular target: UBR2 (human) (UniProt Q8IWV8); experiment: Flag co-IP, MudPIT MS, MG132
gp78 (human) [15] = molecular target: gp78 (human) (UniProt Q9UKV5); experiment: Flag co-IP, MudPIT MS, MG132
PLAP (human) = PLAP (human) (UniProt Q9Y263); experiment: Flag co-IP, 293 cells, MudPIT MS
Sequence of PLAP (human) (Q9Y263 whole entry): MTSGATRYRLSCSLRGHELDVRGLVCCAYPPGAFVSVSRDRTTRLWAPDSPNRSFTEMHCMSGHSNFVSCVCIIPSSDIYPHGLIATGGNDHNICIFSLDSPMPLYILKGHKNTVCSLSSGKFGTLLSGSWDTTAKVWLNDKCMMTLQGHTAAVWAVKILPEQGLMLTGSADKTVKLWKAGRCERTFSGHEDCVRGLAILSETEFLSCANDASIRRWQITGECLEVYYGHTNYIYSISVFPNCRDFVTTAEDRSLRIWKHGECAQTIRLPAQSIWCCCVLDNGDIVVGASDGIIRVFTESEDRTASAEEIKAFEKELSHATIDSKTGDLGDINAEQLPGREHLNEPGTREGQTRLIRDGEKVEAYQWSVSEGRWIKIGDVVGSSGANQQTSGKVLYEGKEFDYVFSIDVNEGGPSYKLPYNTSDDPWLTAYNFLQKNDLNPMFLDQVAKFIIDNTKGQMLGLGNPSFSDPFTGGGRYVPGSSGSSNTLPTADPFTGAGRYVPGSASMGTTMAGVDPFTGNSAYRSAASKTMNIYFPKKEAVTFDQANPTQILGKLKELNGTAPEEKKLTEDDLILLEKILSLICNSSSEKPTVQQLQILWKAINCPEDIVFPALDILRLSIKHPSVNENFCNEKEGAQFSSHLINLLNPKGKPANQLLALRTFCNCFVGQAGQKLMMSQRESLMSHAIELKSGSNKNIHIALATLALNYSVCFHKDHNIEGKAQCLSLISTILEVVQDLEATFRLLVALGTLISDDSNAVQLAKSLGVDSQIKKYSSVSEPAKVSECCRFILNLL

[16] = molecular target: CUL4- and DDB I-associated WDR protein 2, WDR26 (human) (UniProt Q9H7D7); experiment: Flag co-IP, MudPIT MS, DMSO
Elongin C (human) = Elongin C (human) (UniProt Q15369); experiment: Flag co-IP, MudPIT MS, MG132
Sequence of Elongin C (human) (Q15369 whole entry): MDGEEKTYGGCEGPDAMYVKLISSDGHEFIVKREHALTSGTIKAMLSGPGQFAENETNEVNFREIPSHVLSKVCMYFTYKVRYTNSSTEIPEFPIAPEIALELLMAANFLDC

Sequence of Cullin 3 (human) (Q13618 2-768 limits assumed): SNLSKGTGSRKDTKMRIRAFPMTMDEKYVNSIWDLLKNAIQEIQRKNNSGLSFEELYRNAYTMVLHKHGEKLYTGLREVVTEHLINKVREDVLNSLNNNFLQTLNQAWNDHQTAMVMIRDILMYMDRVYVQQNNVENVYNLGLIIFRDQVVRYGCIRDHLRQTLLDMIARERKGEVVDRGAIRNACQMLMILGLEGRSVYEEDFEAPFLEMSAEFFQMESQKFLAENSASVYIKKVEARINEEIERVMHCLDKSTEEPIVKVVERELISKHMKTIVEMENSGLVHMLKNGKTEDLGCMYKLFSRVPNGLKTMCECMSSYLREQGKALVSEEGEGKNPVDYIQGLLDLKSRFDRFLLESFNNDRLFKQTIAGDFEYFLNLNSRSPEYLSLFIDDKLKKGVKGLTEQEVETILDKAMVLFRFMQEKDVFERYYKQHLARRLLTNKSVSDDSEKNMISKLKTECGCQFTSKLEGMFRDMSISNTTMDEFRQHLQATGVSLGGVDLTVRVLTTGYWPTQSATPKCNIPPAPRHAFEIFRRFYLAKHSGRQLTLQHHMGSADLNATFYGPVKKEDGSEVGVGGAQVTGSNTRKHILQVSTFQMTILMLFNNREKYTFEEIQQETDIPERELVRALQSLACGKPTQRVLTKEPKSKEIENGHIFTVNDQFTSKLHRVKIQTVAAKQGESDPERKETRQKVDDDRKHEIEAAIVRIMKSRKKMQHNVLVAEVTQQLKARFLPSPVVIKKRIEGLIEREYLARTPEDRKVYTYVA
Sequence of CUL3-interacting protein I. KLHL12 (human) (Q53G59 whole entry): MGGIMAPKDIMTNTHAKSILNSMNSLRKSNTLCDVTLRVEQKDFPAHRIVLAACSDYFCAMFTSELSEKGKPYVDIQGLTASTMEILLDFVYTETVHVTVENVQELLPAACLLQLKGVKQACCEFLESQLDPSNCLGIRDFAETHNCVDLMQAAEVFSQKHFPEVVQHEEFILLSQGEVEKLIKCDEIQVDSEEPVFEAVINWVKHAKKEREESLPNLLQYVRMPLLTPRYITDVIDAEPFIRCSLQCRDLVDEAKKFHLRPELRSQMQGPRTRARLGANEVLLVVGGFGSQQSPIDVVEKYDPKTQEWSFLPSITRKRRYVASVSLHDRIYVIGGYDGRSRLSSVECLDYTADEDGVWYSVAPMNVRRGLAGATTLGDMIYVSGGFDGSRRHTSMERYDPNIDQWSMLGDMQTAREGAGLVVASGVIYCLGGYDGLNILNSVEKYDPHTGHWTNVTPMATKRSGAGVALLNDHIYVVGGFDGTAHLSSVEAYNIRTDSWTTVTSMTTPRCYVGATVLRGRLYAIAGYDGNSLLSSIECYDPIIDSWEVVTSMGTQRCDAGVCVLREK
Sequence of Baculoviral IAP repeat-containing protein 2, IAP2 (human) (Q13490 whole entry): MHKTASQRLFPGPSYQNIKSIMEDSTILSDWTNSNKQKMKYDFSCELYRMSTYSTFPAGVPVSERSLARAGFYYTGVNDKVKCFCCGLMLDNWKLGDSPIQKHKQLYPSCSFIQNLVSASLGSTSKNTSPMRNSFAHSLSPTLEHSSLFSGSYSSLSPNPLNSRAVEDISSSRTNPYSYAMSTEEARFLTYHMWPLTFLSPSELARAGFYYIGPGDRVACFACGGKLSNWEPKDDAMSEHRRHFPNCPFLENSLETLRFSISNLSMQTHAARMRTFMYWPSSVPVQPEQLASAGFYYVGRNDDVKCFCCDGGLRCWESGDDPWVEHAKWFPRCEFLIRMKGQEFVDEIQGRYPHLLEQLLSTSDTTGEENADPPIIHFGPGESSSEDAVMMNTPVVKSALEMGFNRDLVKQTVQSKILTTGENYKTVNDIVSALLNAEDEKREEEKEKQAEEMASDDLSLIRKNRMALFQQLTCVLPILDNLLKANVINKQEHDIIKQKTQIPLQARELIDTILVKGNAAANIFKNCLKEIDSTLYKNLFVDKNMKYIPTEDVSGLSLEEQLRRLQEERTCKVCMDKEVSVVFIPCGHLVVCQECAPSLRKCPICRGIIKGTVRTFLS

Flag-SAKS1 (from UniProt Q04323 1-297)
abundance factor (AF) [1]: 2.3 | sequence count [1]: 2 | spectrum count [1]: 2 | abundance factor (AF) [2]: 6.4 | sequence count [2]: 2 | spectrum count [2]: 5 | abundance factor (AF) (Cullin 3 (human)): 2.7 | sequence count (Cullin 3 (human)): 3 | spectrum count (Cullin 3 (human)): 3 | abundance factor (AF) [3]: 1.3 | sequence count [3]: 2 | spectrum count [3]: 2 | abundance factor (AF) (EDD1/UBR5 (human) [4]): 2.6 | sequence count (EDD1/UBR5 (human) [4]): 9 | spectrum count (EDD1/UBR5 (human) [4]): 10 | abundance factor (AF) [5]: 2.3 | sequence count [5]: 2 | spectrum count [5]: 2 | abundance factor (AF) (Praja 2 (human)): 3.1 | sequence count (Praja 2 (human)): 3 | spectrum count (Praja 2 (human)): 3 | abundance factor (AF) [6]: 3.8 | sequence count [6]: 18 | spectrum count [6]: 27 | abundance factor (AF) (UBR1 (human)): 0.8 | sequence count (UBR1 (human)): 2 | spectrum count (UBR1 (human)): 2 | abundance factor (AF) (UBR2 (human) [7]): 2.8 | sequence count (UBR2 (human) [7]): 5 | spectrum count (UBR2 (human) [7]): 7 | abundance factor (AF) (gp78 (human) [8]): 3.3 | sequence count (gp78 (human) [8]): 3 | spectrum count (gp78 (human) [8]): 3 | abundance factor (AF) [9]: 0.7 | sequence count [9]: 2 | spectrum count [9]: 2 | abundance factor (AF) [10]: 0.6 | sequence count [10]: 4 | spectrum count [10]: 7 | abundance factor (AF) [11]: 2.2 | sequence count [11]: 4 | spectrum count [11]: 5 | abundance factor (AF) (EDD1/UBR5 (human) [12]): 2 | sequence count (EDD1/UBR5 (human) [12]): 9 | spectrum count (EDD1/UBR5 (human) [12]): 14 | abundance factor (AF) [13]: 5.7 | sequence count [13]: 30 | spectrum count [13]: 74 | abundance factor (AF) (UBR2 (human) [14]): 1.3 | sequence count (UBR2 (human) [14]): 3 | spectrum count (UBR2 (human) [14]): 6 | abundance factor (AF) (gp78 (human) [15]): 3.6 | sequence count (gp78 (human) [15]): 3 | spectrum count (gp78 (human) [15]): 6 | sequence count (PLAP (human)): 26 | sequence coverage (PLAP (human)): 32.1% | spectrum count (PLAP (human)): 90

Flag-UBXD7 (from UniProt O94888 1-489)
abundance factor (AF) [1]: 6.1 | sequence count [1]: 3 | spectrum count [1]: 3 | abundance factor (AF) [2]: 18.1 | sequence count [2]: 6 | spectrum count [2]: 8 | abundance factor (AF) [16]: 46.4 | sequence count [16]: 12 | spectrum count [16]: 19 | abundance factor (AF) (Cullin 3 (human)): 37 | sequence count (Cullin 3 (human)): 13 | spectrum count (Cullin 3 (human)): 23 | abundance factor (AF) [3]: 12.4 | sequence count [3]: 11 | spectrum count [3]: 11 | abundance factor (AF) [5]: 6 | sequence count [5]: 3 | spectrum count [5]: 3 | abundance factor (AF) (Praja 2 (human)): 5.5 | sequence count (Praja 2 (human)): 2 | spectrum count (Praja 2 (human)): 3 | abundance factor (AF) [6]: 4.5 | sequence count [6]: 12 | spectrum count [6]: 18 | abundance factor (AF) (UBR1 (human)): 1.4 | sequence count (UBR1 (human)): 2 | spectrum count (UBR1 (human)): 2 | abundance factor (AF) (UBR2 (human) [7]): 2.1 | sequence count (UBR2 (human) [7]): 2 | spectrum count (UBR2 (human) [7]): 3 | abundance factor (AF) (gp78 (human) [8]): 5.9 | sequence count (gp78 (human) [8]): 3 | spectrum count (gp78 (human) [8]): 3 | abundance factor (AF) [9]: 2.6 | sequence count [9]: 13 | spectrum count [9]: 13 | abundance factor (AF) (EDD1/UBR5 (human) [12]): 0.2 | sequence count (EDD1/UBR5 (human) [12]): 2 | spectrum count (EDD1/UBR5 (human) [12]): 2 | abundance factor (AF) (Elongin C (human)): 20 | sequence count (Elongin C (human)): 8 | spectrum count (Elongin C (human)): 10 | abundance factor (AF) [13]: 2.1 | sequence count [13]: 41 | spectrum count [13]: 49 | sequence count (PLAP (human)): 2 | sequence coverage (PLAP (human)): 4% | spectrum count (PLAP (human)): 2

Flag-UBXD8 (from UniProt Q96CS3 1-445)
abundance factor (AF) [16]: 1.2 | sequence count [16]: 2 | spectrum count [16]: 4 | abundance factor (AF) [3]: 0.3 | sequence count [3]: 2 | spectrum count [3]: 2 | abundance factor (AF) (EDD1/UBR5 (human) [4]): 0.2 | sequence count (EDD1/UBR5 (human) [4]): 3 | spectrum count (EDD1/UBR5 (human) [4]): 3 | abundance factor (AF) (Praja 2 (human)): 0.7 | sequence count (Praja 2 (human)): 3 | spectrum count (Praja 2 (human)): 3 | abundance factor (AF) [6]: 0.2 | sequence count [6]: 3 | spectrum count [6]: 5 | abundance factor (AF) (UBR1 (human)): 0.3 | sequence count (UBR1 (human)): 3 | spectrum count (UBR1 (human)): 3 | abundance factor (AF) (UBR2 (human) [7]): 0.4 | sequence count (UBR2 (human) [7]): 3 | spectrum count (UBR2 (human) [7]): 5 | abundance factor (AF) (gp78 (human) [8]): 0.5 | sequence count (gp78 (human) [8]): 2 | spectrum count (gp78 (human) [8]): 2 | abundance factor (AF) [9]: 0.7 | sequence count [9]: 3 | spectrum count [9]: 4 | abundance factor (AF) [10]: 0.3 | sequence count [10]: 6 | spectrum count [10]: 6 | abundance factor (AF) [11]: 0.5 | sequence count [11]: 2 | spectrum count [11]: 2 | abundance factor (AF) (EDD1/UBR5 (human) [12]): 0.8 | sequence count (EDD1/UBR5 (human) [12]): 9 | spectrum count (EDD1/UBR5 (human) [12]): 10 | abundance factor (AF) (Elongin C (human)): 5.7 | sequence count (Elongin C (human)): 2 | spectrum count (Elongin C (human)): 3 | abundance factor (AF) [13]: 0.3 | sequence count [13]: 6 | spectrum count [13]: 6 | abundance factor (AF) (UBR2 (human) [14]): 0.2 | sequence count (UBR2 (human) [14]): 2 | spectrum count (UBR2 (human) [14]): 2 | abundance factor (AF) (gp78 (human) [15]): 1.9 | sequence count (gp78 (human) [15]): 4 | spectrum count (gp78 (human) [15]): 6 | sequence count (PLAP (human)): 10 | sequence coverage (PLAP (human)): 20.1% | spectrum count (PLAP (human)): 15

From US20090192084A1
